Source: patent US20150301024

B1: recombinant human caspase 3 (protein)
chain: SGISLDNSYKMDYPEMGLCIIINNKNFHKSTGMTSRSGTDVDAANLRETFRNLKYEVRNKNDLTREEIVELMRDVSKEDHSKRSSFVCVLLSHGEEGIIFGTNGPVDLKKITNFFRGDRCRSLTGKPKLFIIQACRGTELDCGIETDSGVDDDMACHKIPVEADFLYAYSTAPGYYSWRNSKDGSWFIQSLCAMLKQYADKLEFMHILTRVNRKVATEFESFSFDATFHAKKQIPCIVSMLTKELYFYH
B2: recombinant human caspase 7 (protein)
chain: AKPDRSSFVPSLFSKKKKNVTMRSIKTTRDRVPTYQYNMNFEKLGKCIIINNKNFDKVTGMGVRNGTDKDAEALFKCFRSLGFDVIVYNDCSCAKMQDLLKKASEEDHTNAACFACILLSHGEENVIYGKDGVTPIKDLTAHFRGDRCKTLLEKPKLFFIQACRGTELDDGIQADSGPINDTDANPRYKIPVEADFLFAYSTVPGYYSWRSPGRGSWFVQALCSILEEHGKDLEIMQILTRVNDRVARHFESQSDDPHFHEKKQIPCVVSMLTKELYFSQ

Molecular target: hXkr8-GFP (wild-type human Xkr8 fused to GFP at its C-terminus)

Protein | cleavage of the GFP-fusion protein, Western blot with anti-GFP
B1 | caspase 3 and caspase 7 cleaved the wild-type but not 2DA mutant hXkr8
B2 | caspase 3 and caspase 7 cleaved the wild-type but not 2DA mutant hXkr8
